In patent US20090180952A1:

What was measured:
[1] = biological target: recombinant soluble urokinase plasminogen activator receptor (suPAR, aa 1-279) (UniProt Q03405); assay: direct binding assay (format and antigen form not stated)
[2] = biological target: recombinant soluble urokinase plasminogen activator receptor (suPAR, aa 1-279) (UniProt Q03405); assay: ELISA on suPAR, bound Biotin-ATN-658 detected with HRP-streptavidin

**Q.** mAb ATN-658 (antibody) was tested. Which Kd [1] did it give?
**A.** The Kd was 1 nM.

**Q.** And the EC50 (read off the curve) [2]?
**A.** The EC50 (read off the curve) was 0.2 nM.
